Source: article PMC12728182 (2025)

What was measured:
[1] = biological target: T1, Human Rac1 (residues 1-177), GMPPNP-loaded (human, UniProt P63000 1-177); test: ITC; 10 °C, GMPPNP-loaded Rac1 (average)
[2] = biological target: T1, Human Rac1 (residues 1-177), …; test: ITC; 35 °C, GMPPNP-loaded Rac1 (average)
[3] = biological target: T1, Human Rac1 (residues 1-177), …; test: ITC; 15 °C, GMPPNP-loaded Rac1 (average)
[4] = biological target: T1, Human Rac1 (residues 1-177), …; test: ITC; 15 °C

B1: POSH_(315-380), shorter construct of human POSH comprising MRE1 and MRE2 (domain or fragment)
chain: GHMWSQASQNRHSMEISPPVLISSSNPTAAARISELSGLSCSAPSQVHISTTGLIVTPPPSSPVTTGPSF
B1 showed a Kd [1] of 26.8 µM, a Kd [2] of 21.7 µM and a Kd [3] of 20.2 µM. The Kd [4] was 21.6 µM.
